# Results reported in the Immune Epitope Database (IEDB).
# Tests used:
# HLA-A*80:01 = assay: IEDB peptide-MHC binding, purified MHC/direct/fluorescence; filed as Kd, often an IC50 or EC50 that approximates it; ≥ and ≤ were set here for values at or beyond the usual limits of such assays; conditions: source organism: Mus musculus
# HLA-A*01:01 [1] = assay: IEDB peptide-MHC binding, purified MHC/competitive/fluorescence; filed as Kd, often an IC50 or EC50 that approximates it; ≥ and ≤ were set here for values at or beyond the usual limits of such assays; conditions: source organism: Homo sapiens
# HLA-A*29:02 [2] = assay: as above; conditions: source organism: Homo sapiens
# HLA-B*15:42 = assay: as above
# HLA-B*45:06 = assay: as above
# HLA-B*83:01 = assay: as above
# HLA-C*06:02 [3] = assay: as above; conditions: source organism: Homo sapiens
# HLA-C*14:02 [4] = assay: as above; conditions: source organism: Homo sapiens
# HLA-A*02:01 [5] = assay: IEDB peptide-MHC binding, cellular MHC/competitive/fluorescence; ≥ and ≤ were set here for values at or beyond the usual limits of such assays; conditions: source organism: Homo sapiens
# HLA-B*15:17 = assay: IEDB peptide-MHC binding, purified MHC/direct/fluorescence; filed as Kd, often an IC50 or EC50 that approximates it; ≥ and ≤ were set here for values at or beyond the usual limits of such assays
# HLA-B*57:01 = assay: as above
# HLA-B*58:01 = assay: as above
# HLA-C*15:02 = assay: as above
# HLA-A*32:07 = assay: IEDB peptide-MHC binding, purified MHC/competitive/fluorescence; filed as Kd, often an IC50 or EC50 that approximates it; ≥ and ≤ were set here for values at or beyond the usual limits of such assays; conditions: source organism: Influenza A virus (A/Fort Monmouth/1/1947-mouse adapted(H1N1))
# HLA-A*32:15 = assay: as above; conditions: source organism: Influenza A virus (A/Fort Monmouth/1/1947-mouse adapted(H1N1))
# HLA-A*68:23 = assay: as above; conditions: source organism: Influenza A virus (A/Fort Monmouth/1/1947-mouse adapted(H1N1))
# HLA-A*01:01 [6] = assay: IEDB peptide-MHC binding, purified MHC/direct/fluorescence; filed as Kd, often an IC50 or EC50 that approximates it; ≥ and ≤ were set here for values at or beyond the usual limits of such assays; conditions: source organism: Influenza A virus (A/New Caledonia/20/1999(H1N1))
# HLA-A*02:01 [7] = assay: as above; conditions: source organism: Influenza A virus (A/New Caledonia/20/1999(H1N1))
# HLA-A*02:11 = assay: as above; conditions: source organism: Influenza A virus(A/swine/Henan/8/2004(H9N2))
# HLA-A*03:01 = assay: as above; conditions: source organism: Influenza A virus (A/New Caledonia/20/1999(H1N1))
# HLA-A*11:01 = assay: as above; conditions: source organism: Influenza A virus (A/New Caledonia/20/1999(H1N1))
# HLA-A*31:01 = assay: as above; conditions: source organism: Influenza A virus (A/New Caledonia/20/1999(H1N1))
# HLA-A*69:01 = assay: as above; conditions: source organism: Influenza A virus (A/New Caledonia/20/1999(H1N1))
# HLA-B*07:02 = assay: as above
# HLA-B*08:03 = assay: as above; conditions: source organism: Influenza A virus(A/swine/Henan/8/2004(H9N2))
# HLA-B*15:01 = assay: as above; conditions: source organism: Influenza A virus (A/New Caledonia/20/1999(H1N1))
# HLA-B*15:02 = assay: as above; conditions: source organism: Influenza A virus(A/swine/Henan/8/2004(H9N2))
# HLA-B*27:05 = assay: as above; conditions: source organism: Influenza A virus (A/New Caledonia/20/1999(H1N1))
# HLA-B*46:01 = assay: as above; conditions: source organism: Influenza A virus (A/New Caledonia/20/1999(H1N1))
# HLA-B*48:01 = assay: as above; conditions: source organism: Influenza A virus (A/New Caledonia/20/1999(H1N1))
# HLA-C*06:02 [8] = assay: as above; conditions: source organism: Influenza A virus (A/swine/Italy/1509-6/97(H1N1))
# HLA-C*14:02 [9] = assay: as above; conditions: source organism: Influenza A virus (A/swine/Italy/1509-6/97(H1N1))
# HLA-A*26:02 = assay: IEDB peptide-MHC binding, purified MHC/competitive/fluorescence; filed as Kd, often an IC50 or EC50 that approximates it; ≥ and ≤ were set here for values at or beyond the usual limits of such assays; conditions: source organism: Influenza A virus (A/swine/Italy/1509-6/97(H1N1))
# HLA-A*26:03 = assay: as above; conditions: source organism: Influenza A virus (A/swine/Italy/1509-6/97(H1N1))
# HLA-A*68:02 = assay: as above; conditions: source organism: Influenza A virus (A/swine/Italy/1509-6/97(H1N1))
# HLA-B*08:01 = assay: as above; conditions: source organism: Influenza A virus (A/swine/Italy/1509-6/97(H1N1))
# HLA-B*15:09 = assay: as above; conditions: source organism: Influenza A virus (A/swine/Italy/1509-6/97(H1N1))
# HLA-B*39:01 = assay: as above; conditions: source organism: Influenza A virus (A/swine/Italy/1509-6/97(H1N1))
# HLA-A*02:19 = assay: IEDB peptide-MHC binding, purified MHC/direct/fluorescence; filed as Kd, often an IC50 or EC50 that approximates it; ≥ and ≤ were set here for values at or beyond the usual limits of such assays; conditions: source organism: Francisella tularensis subsp. tularensis FSC033
# HLA-A*02:50 = assay: as above; conditions: source organism: Francisella tularensis subsp. tularensis FSC033
# HLA-A*23:01 = assay: as above; conditions: source organism: Francisella tularensis subsp. tularensis FSC033
# HLA-A*24:03 = assay: as above; conditions: source organism: Francisella tularensis subsp. tularensis FSC033
# HLA-A*29:02 [10] = assay: as above; conditions: source organism: Francisella tularensis subsp. tularensis FSC033
# HLA-A*30:01 = assay: as above; conditions: source organism: Francisella tularensis subsp. tularensis FSC033
# HLA-B*18:01 = assay: as above; conditions: source organism: Francisella tularensis subsp. tularensis FSC033
# HLA-B*40:01 = assay: as above; conditions: source organism: Francisella tularensis subsp. tularensis FSC033
# HLA-B*44:02 = assay: as above; conditions: source organism: Francisella tularensis subsp. tularensis FSC033
# HLA-B*51:01 = assay: as above; conditions: source organism: Francisella tularensis subsp. tularensis FSC033
# HLA-A*26:01 = assay: IEDB peptide-MHC binding, purified MHC/competitive/fluorescence; filed as Kd, often an IC50 or EC50 that approximates it; ≥ and ≤ were set here for values at or beyond the usual limits of such assays; conditions: source organism: Francisella tularensis subsp. tularensis FSC198
# [11] = source organism: Influenza A virus (A/finch/Canada/NS1301/2001(H3N8))
# [12] = source organism: Influenza A virus (A/Fort Monmouth/1/1947-mouse adapted(H1N1))
# [13] = source organism: Influenza A virus (A/New Caledonia/20/1999(H1N1))
# [14] = source organism: Francisella tularensis subsp. tularensis FSC033
sequence,measurement,setting,value
TFMDHVLRY,Kd,HLA-A*80:01,109 nM
same,Kd,HLA-A*01:01 [1],1400 nM
same,Kd,HLA-A*29:02 [2],≤ 0.1 nM
same,Kd,HLA-B*15:42; source organism: Homo sapiens,≥ 5 µM
same,Kd,HLA-B*45:06; source organism: Homo sapiens,≥ 5 µM
same,Kd,HLA-B*83:01; source organism: Homo sapiens,≥ 5 µM
same,Kd,HLA-C*06:02 [3],663 nM
same,Kd,HLA-C*14:02 [4],0.4 nM
LLLDVPTAAVQA,IC50,HLA-A*02:01 [5],1890 nM
GTFEFTSFF,Kd,HLA-B*15:17; [11],5.9 nM
same,Kd,HLA-B*57:01; [11],0.36 µM
same,Kd,HLA-B*58:01; [11],0.496 µM
same,Kd,HLA-C*15:02; [12],3.66 µM
same,Kd,HLA-A*32:07,23.8 nM
same,Kd,HLA-A*32:15,893 nM
same,Kd,HLA-A*68:23,5.7 nM
same,Kd,HLA-B*15:42; [12],≥ 5 µM
same,Kd,HLA-B*45:06; [12],≥ 5 µM
same,Kd,HLA-B*83:01; [12],≥ 5 µM
WMACHSAAF,Kd,HLA-A*01:01 [6],≥ 20 µM
same,Kd,HLA-A*02:01 [7],≥ 20 µM
same,Kd,HLA-A*02:11,60 nM
same,Kd,HLA-A*03:01,≥ 20 µM
same,Kd,HLA-A*11:01,≥ 20 µM
same,Kd,HLA-A*31:01,≥ 20 µM
same,Kd,HLA-A*69:01,≥ 20 µM
same,Kd,HLA-B*07:02; [13],9.8 µM
same,Kd,HLA-B*08:03,83 nM
same,Kd,HLA-B*15:01,18 nM
same,Kd,HLA-B*15:02,5 nM
same,Kd,HLA-B*15:17; [13],189 nM
same,Kd,HLA-B*27:05,6.3 µM
same,Kd,HLA-B*46:01,756 nM
same,Kd,HLA-B*48:01,1430 nM
same,Kd,HLA-B*57:01; [13],≥ 20 µM
same,Kd,HLA-B*58:01; [13],≥ 20 µM
same,Kd,HLA-C*06:02 [8],≥ 20 µM
same,Kd,HLA-C*14:02 [9],43 nM
same,Kd,HLA-C*15:02; source organism: Influenza A virus (A/swine/Italy/1509-6/97(H1N1)),≥ 20 µM
same,Kd,HLA-A*26:02,0.4 nM
same,Kd,HLA-A*26:03,158 nM
same,Kd,HLA-A*68:02,929 nM
same,Kd,HLA-B*08:01,77.2 nM
same,Kd,HLA-B*15:09,600 nM
same,Kd,HLA-B*39:01,59.5 nM
NTIEELSGY,Kd,HLA-A*02:19,≥ 20 µM
same,Kd,HLA-A*02:50,≥ 20 µM
same,Kd,HLA-A*23:01,≥ 20 µM
same,Kd,HLA-A*24:03,≥ 20 µM
same,Kd,HLA-A*29:02 [10],28 nM
same,Kd,HLA-A*30:01,≥ 20 µM
same,Kd,HLA-B*07:02; [14],≥ 20 µM
same,Kd,HLA-B*18:01,≥ 20 µM
same,Kd,HLA-B*40:01,≥ 20 µM
same,Kd,HLA-B*44:02,≥ 20 µM
same,Kd,HLA-B*51:01,≥ 20 µM
same,Kd,HLA-B*57:01; [14],≥ 20 µM
same,Kd,HLA-B*58:01; [14],≥ 20 µM
same,Kd,HLA-A*26:01,0.6 nM
